Legend:
[1] = biological target: α-galactosidase Aga-BC7050 from Bacillus coagulans ATCC 7050 (Bacillus coagulans ATCC 7050); test: SEC; analytical gel filtration, Superdex 200 Increase 10/300 GL, 10 mM phosphate buffer, 0.14 M NaCl, pH 7.4, 0.75 mL/min, room temperature; calibrated with albumin, lactate dehydrogenase, catalase, ferritin, thyroglobulin; native mass compared with SDS-PAGE mass
Aga-BC7050 = biological target: T1, Aga-BC7050 (Heyndrickxia coagulans, UniProt A0A8B4BWV9); test: pNPGal hydrolysis with added sugar; format: biochemical; settings: substrate pNPGal; McIlvaine buffer; galactose is also the reaction product
T1 construct: GH36 homodimer, 168 kDa by gel filtration; predicted nucleophile Asp477, acid/base Asp547
T1 sequence (A0A8B4BWV9 1-730): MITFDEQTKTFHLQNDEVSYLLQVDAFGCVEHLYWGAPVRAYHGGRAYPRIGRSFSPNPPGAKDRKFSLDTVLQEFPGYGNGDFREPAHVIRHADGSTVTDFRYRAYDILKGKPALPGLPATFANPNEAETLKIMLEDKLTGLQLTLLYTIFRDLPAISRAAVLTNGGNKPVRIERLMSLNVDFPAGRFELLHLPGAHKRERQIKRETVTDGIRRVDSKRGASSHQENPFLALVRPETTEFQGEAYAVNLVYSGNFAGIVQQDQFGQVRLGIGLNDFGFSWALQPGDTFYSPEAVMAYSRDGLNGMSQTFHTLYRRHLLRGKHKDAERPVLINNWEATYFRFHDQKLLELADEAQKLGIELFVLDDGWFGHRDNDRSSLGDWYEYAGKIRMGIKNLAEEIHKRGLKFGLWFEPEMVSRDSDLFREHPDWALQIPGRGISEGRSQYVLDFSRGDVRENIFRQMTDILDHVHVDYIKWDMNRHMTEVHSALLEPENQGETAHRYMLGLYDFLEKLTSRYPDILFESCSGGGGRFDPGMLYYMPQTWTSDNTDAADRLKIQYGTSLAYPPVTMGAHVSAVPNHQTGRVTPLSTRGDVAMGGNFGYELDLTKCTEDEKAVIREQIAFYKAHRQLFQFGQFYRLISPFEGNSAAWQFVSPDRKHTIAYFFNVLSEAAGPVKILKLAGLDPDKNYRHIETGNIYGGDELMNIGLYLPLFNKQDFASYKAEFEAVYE

purified protein [2] = substrate: O=[N+]([O-])c1ccc(O[C@H]2O[C@H](CO)[C@H](O)[C@H](O)[C@H]2O)cc1; test: purified protein; format: biochemical, Heyndrickxia coagulans; settings: McIlvaine buffer pH 6.0, 55 °C
purified protein [3] = substrate: OC[C@H]1O[C@H](OC[C@H]2O[C@H](O[C@]3(CO)O[C@H](CO)[C@@H](O)[C@@H]3O)[C@H](O)[C@@H](O)[C@@H]2O)[C@H](O)[C@@H](O)[C@H]1O; test: purified protein; format: biochemical, Heyndrickxia coagulans; settings: McIlvaine buffer pH 6.0, 55 °C

α-galactosidase Aga-BC7050 from Bacillus coagulans ATCC 7050 (enzyme)
stoichiometry N [1]: 2

OC[C@H]1OC(O)[C@H](O)[C@@H](O)[C@H]1O (stereo partly shown) [galactose]
% decrease of activity at 100 mM (Aga-BC7050): 24.4%

B1: Aga-BC7050 (Heyndrickxia coagulans DSM 1 = ATCC 7050) (protein)
chain: T1 sequence (A0A8B4BWV9 1-730)
notes: GH36 homodimer, 168 kDa by gel filtration; predicted nucleophile Asp477, acid/base Asp547
Km (purified protein [2]): 1.1 ± 0.2 mM
Vmax (purified protein [2]): 655 µmol/min/mg
kcat (purified protein [2]): 942 ± 73.9 s⁻¹
kcat/Km (purified protein [2]): 844000 M⁻¹ s⁻¹
Km (purified protein [3]): 53.7 ± 0.9 mM
Vmax (purified protein [3]): 1140 µmol/min/mg
kcat (purified protein [3]): 1610 ± 53.4 s⁻¹
kcat/Km (purified protein [3]): 30500 M⁻¹ s⁻¹

— paper PMC5940202, “A novel α-galactosidase from the thermophilic probiotic Bacillus coagulans with remarkable protease-resistance and high hydrolytic activity” (PLoS ONE, 2018)
